Laboratory results: patent US20230139885A1 (FUNDACI INSTITUT DE RECERCA CONTRA LA LEUC MIA JOSEP …, published 2023)

Target: T1, human CD22 on cells (human, UniProt P20273 20-847)
T1 construct: whole, on cells; also called CD22-transfected 300.19 cells; CD22+ Raji cells
T1 sequence (looked up): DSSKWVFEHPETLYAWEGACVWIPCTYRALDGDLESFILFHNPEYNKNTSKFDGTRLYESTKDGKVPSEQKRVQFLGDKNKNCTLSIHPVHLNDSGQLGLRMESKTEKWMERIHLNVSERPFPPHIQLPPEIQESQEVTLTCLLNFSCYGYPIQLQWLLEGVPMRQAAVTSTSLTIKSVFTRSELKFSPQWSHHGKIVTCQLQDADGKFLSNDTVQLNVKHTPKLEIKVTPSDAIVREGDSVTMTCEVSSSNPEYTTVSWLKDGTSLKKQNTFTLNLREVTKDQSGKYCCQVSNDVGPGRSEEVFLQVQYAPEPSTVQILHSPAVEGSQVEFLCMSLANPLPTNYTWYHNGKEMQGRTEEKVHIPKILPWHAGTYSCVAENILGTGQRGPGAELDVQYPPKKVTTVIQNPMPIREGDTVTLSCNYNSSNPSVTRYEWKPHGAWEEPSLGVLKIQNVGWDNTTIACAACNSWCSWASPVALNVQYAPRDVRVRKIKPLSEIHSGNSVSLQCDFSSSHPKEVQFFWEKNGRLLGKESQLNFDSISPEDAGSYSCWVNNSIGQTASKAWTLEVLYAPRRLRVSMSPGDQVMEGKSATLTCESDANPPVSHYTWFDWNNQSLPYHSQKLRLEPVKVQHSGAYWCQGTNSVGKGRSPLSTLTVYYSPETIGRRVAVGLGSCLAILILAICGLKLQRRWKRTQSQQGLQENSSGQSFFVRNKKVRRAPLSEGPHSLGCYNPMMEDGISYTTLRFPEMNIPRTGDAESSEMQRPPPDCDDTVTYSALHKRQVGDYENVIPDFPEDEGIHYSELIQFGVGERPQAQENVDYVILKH
Assay: flow cytometry of hybridoma supernatants on CD22-transfected 300.19 cells
From the text: MoAbs reactive with human CD22 were generated by fusion of NS-1 myeloma cells with splenocytes from a Balb/c mouse previously immunized three times with 30×10⁶ CD22-transfected 300.19 cells. Supernatants from hybridoma-containing wells were screened by flow cytometry for moAbs reactive with CD22-transfected 300.19 cells. Three reactive hybridomas were chosen for further characterization and were subcloned by limiting dilution (clones hCD22.7, hCD22.316 and hCD22.401). The three antibodies were of the IgG1K isotype, as determined using a mouse moAb isotyping kit (Boehringer Mannheim, Mannheim, Germany). Antibody specificity was further validated using a CD22-transfected COS cell line (pUNO1-hCD22; InvivoGen, Toulouse, France), the cell lines Raji, Daudi, […], U266 and Jurkat, and peripheral blood (PB) mononuclear cells (PBMCs). CD22 epitope binding to the hCD22.7 clone was determined by crossblocking with an antibody against the N-terminal domain of CD22 (S-HCL-1). The CD22-specific scFv derived from the hCD22.7 clone was obtained using the mouse IgG Library Primer Set (Progen, Heidelberg, Germany).

binding result: binds
B1: anti-CD22 monoclonal antibody clone hCD22.7 (antibody, V domains shown)
VH: EVQLQESGPSLVKPSQTLSLTCSVTGDSITSGYWNWIRKFPGNKLEYMGYISYSGSTYYNPSLKSRISITRDTSKNQYYMQLKSVTTEDTATYYCARYPSPDAMNYWGQGTSVTVSS
VL: not shown
notes: also called hCD22.7 moAb; hCD22.7 clone
